Test results reported in PMC7619462.
Values belong to the binder of their own block, whether it stands above or below them.

What was measured:
[1] = biological target: T1, NPR-33 (C. elegans) (UniProt O62189)
T1 sequence: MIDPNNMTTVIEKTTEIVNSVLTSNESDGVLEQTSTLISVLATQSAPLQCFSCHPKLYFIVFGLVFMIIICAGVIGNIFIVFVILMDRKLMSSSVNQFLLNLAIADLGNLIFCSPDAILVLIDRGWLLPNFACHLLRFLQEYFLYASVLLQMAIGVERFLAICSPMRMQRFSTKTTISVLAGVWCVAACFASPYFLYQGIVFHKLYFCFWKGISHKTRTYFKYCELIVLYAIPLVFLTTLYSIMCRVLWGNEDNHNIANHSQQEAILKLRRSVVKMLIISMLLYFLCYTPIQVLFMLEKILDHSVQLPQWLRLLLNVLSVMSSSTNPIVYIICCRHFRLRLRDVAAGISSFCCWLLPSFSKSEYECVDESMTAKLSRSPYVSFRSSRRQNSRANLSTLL

[2] = biological target: NPR-44 (C. elegans) (UniProt Q9N5L5)
UniProt Q9N5L5, sequence (Q9N5L5 entry or part of it): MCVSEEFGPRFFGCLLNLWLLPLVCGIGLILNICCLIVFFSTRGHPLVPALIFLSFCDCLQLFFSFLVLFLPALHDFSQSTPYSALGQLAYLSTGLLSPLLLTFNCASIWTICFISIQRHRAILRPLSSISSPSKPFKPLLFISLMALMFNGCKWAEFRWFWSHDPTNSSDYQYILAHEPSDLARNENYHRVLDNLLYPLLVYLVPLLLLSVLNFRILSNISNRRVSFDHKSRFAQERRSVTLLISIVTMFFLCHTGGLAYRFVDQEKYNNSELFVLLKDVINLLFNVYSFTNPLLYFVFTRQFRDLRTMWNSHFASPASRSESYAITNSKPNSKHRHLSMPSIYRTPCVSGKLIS

EC50 of receptor activation: calcium mobilization (aequorin) in CHO cells co-expressing the GPCR and Gα16, concentration-response curve, n = 6; also significant calcium response at 10 μM [1]: 76.3 nM
Binder: WYDWQNVPHALQQ [NLP-70-2]

EC50 of receptor activation: calcium mobilization (aequorin) in CHO cells co-expressing the GPCR and Gα16, concentration-response curve, n = 6 [1]: 1160 nM
Binder: WYEWNNDMEIT [NLP-70-1]

EC50 of receptor activation: calcium mobilization (aequorin) in CHO cells co-expressing the GPCR and Gα16, concentration-response curve, n = 6; also significant calcium response at 10 μM [2]: 232 nM
Binder: LHRIGGNIVM [NLP-69-1]
